The values that follow come from publication PMC6508567 (2018).

As usually defined, the Kd is a measure of binding affinity in units of concentration. A high value points to lower affinity. As usually defined, the koff is the first-order rate constant of dissociation. Lower therefore signals slow dissociation.

Sequences and labels used below:
B1: serpin Z4 (natural protein)
chain: MATTLATDVRLSIAHQTRFALRLRSAISSNPERAAGNVAFSPLSLHVALSLITAGAAATRDQLVAILGDGGAGDAKELNALAEQVVQFVLANESSTGGPRIAFANGIFVDASLSLKPSFEELAVCQYKAKTQSVDFQHKTLEAVGQVNSWVEQVTTGLIKQILPPGSVDNTTKLILGNALYFKGAWDQKFDESNTKCDSFHLLDGSSIQTQFMSSTKKQYISSSDNLKVLKLPYAKGHDKRQFSMYILLPGAQDGLWSLAKRLSTEPEFIENHIPKQTVEVGRFQLPKFKISYQFEASSLLRALGLQLPFSEEADLSEMVDSSQGLEISHVFHKSFVEVNEEGTEAGAATVAMGVAMSMPLKVDLVDFVANHPFLFLIREDIAGVVVFVGHVTNPLISA
B2: β-amylase WT (enzyme)
chain: MEVNVKGNYVQVYVMLPLDAVSVNNRFEKGDELRAQLRKLVEAGVDGVMVDVWWGLVEGKGPKAYDWSAYKQLFELVQKAGLKLQAIMSFHQCGGNVGDAVNIPIPQWVRDVGTCDPDIFYTDGHGTRNIEYLTLGVDNQPLFHGRSAVQMYADYMTSFRENMKEFLDAGVIVDIEVGLGPAGEMRYPSYPQSHGWSFPGIGEFICYDKYLQADFKAAAAAVGHPEWEFPNDVGQYNDTPERTQFFRDNGTYLSEKGRFFLAWYSNNLIKHGDRILDEANKVFLGYKVQLAIKISGIHWWYKVPSHAAELTAGYYNLHDRDGYRTIARMLKRHRASINFTCAEMRDSEQSSQAMSAPEELVQQVLSAGWREGLNVACENALPRYDPTAYNTILRNARPHGINQSGPPEHKLFGFTYLRLSNQLVEGQNYANFKTFVDRMHANLPRDPYVDPMAPLPRSGPEISIEMILQAAQPKLQPFPFQEHTDLPVGPTGGMGGQAEGPTCGMGGQVKGPTGGMGGQAEDPTSGIGGELPATM

The target in assay [1] is B2. Kind of assay: MST; β-amylase labelled, serpin Z4 titrated.
Assay [2] addresses B2. Kind of assay: SPR; β-amylase immobilised. A general note: In SPR one partner is held on a chip, and binding of the other changes the refractive index at the surface.
The target in assay [3] is B1. The assay can be described thus: SPR; serpin Z4 immobilised.

B1 had a Kd in assay [1] of 215 nM. In addition, in assay [2], the off-rate constant (koff) was 0.00263 s⁻¹.
In turn, B2 displayed a koff in assay [3] of 0.00243 s⁻¹.
